These results are taken from patent US20250382355A1 (Merck Sharp & Dohme, published 2025).

In assay [1] the target is T1, SARS-CoV-2 spike protein on recombinant CHO K1 cells (SARS-CoV-2, UniProt P0DTC2 14-1273).
T1 construct: whole, on cells
As to the kind of experiment: FACS on CHO K1 cells.

For assay [2], the target named is SARS-CoV spike protein on recombinant CHO K1 cells (SARS-CoV, UniProt P59594 14-1255). As to the kind of experiment: FACS on CHO K1 cells.
Assay [3] has as its target T2, MERS spike protein on recombinant CHO K1 cells (MERS-CoV, UniProt K9N5Q8 18-1353).
T2 sequence: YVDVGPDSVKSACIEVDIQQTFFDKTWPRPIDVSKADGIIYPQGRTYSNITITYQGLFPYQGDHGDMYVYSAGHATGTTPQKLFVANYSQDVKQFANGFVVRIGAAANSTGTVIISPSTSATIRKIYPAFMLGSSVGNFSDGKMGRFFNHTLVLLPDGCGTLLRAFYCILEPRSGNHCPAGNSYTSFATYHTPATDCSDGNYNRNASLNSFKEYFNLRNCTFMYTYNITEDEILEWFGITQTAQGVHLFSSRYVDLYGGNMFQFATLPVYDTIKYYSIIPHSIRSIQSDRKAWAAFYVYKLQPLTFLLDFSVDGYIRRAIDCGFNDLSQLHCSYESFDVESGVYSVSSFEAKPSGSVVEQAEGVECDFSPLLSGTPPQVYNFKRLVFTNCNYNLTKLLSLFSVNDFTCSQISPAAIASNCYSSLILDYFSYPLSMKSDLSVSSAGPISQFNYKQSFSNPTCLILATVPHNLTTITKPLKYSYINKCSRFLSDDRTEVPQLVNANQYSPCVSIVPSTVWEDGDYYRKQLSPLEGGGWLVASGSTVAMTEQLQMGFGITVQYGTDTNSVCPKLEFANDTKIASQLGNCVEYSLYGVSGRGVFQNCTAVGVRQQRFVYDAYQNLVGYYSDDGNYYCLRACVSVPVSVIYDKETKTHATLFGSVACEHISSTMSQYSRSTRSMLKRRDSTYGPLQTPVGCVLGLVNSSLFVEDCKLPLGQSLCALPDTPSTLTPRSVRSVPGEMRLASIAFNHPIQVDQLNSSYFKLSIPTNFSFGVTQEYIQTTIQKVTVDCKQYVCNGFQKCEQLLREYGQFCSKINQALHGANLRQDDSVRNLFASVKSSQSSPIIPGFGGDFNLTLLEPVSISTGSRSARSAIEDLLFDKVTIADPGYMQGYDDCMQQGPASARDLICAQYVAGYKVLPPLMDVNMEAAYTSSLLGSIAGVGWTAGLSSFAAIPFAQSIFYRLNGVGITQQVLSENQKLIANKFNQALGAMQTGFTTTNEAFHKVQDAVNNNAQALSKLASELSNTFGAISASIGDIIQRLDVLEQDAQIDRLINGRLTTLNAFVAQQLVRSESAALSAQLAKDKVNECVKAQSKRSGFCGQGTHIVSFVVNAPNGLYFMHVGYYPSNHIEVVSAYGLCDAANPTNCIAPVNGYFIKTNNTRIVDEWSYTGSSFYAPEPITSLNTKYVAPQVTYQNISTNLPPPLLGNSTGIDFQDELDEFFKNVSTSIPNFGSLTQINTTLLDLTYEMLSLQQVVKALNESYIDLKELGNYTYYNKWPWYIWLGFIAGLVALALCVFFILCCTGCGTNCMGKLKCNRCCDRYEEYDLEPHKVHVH
As to the kind of experiment: FACS on CHO K1 cells.

Assay [4] concerns the target SARS-CoV spike on rVSV-deltaG-Luc pseudovirus (SARS-CoV, UniProt P59594 14-1236). As to the kind of experiment: cell-based or functional assay.
Assay [5] concerns the target T3, OC43 spike protein (human coronavirus OC43, UniProt P36334 14-1278).
T3 sequence: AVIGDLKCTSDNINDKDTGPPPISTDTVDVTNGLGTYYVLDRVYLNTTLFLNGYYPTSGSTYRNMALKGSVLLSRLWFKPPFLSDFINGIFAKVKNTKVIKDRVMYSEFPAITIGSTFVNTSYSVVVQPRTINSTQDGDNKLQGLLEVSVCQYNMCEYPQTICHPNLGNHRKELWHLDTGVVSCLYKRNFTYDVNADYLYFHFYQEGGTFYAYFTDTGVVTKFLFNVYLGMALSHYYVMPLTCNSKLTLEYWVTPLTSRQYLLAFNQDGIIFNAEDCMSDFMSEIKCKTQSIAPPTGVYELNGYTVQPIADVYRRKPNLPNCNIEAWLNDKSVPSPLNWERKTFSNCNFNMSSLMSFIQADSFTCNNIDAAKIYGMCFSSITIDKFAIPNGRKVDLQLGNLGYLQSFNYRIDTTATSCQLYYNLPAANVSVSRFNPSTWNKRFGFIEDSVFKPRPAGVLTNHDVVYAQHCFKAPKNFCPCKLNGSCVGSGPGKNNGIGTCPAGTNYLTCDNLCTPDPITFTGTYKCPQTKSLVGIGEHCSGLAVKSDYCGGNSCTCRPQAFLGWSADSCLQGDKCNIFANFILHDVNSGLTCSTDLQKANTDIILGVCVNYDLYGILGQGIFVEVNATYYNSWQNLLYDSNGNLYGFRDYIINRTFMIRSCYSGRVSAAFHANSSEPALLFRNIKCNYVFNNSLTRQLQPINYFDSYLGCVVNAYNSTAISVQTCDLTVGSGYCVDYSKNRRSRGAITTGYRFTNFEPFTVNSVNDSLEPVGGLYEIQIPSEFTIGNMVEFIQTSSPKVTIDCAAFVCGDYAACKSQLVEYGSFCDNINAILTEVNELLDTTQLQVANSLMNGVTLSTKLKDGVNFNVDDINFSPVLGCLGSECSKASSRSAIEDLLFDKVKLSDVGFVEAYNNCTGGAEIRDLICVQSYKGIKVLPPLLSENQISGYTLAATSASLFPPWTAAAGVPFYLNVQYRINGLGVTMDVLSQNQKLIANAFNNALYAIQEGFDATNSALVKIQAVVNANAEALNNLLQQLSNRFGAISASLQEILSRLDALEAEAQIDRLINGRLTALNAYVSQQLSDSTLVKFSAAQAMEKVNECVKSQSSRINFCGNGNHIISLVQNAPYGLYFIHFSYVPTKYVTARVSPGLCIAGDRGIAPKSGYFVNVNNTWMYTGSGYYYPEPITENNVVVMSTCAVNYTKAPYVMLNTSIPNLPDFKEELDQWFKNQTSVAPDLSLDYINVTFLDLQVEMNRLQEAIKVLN
As to the kind of experiment: ELISA. (In general: An ELISA detects its analyte on a solid surface through an enzyme-linked reagent.)

In assay [6] the target is spike protein of authentic SARS-CoV/Urbani virus (SARS-CoV, UniProt P59594 14-1255). As to the kind of experiment: cell-based or functional assay.
The target in assay [7] is spike protein of authentic SARS-CoV-2 virus (SARS-CoV-2, UniProt P0DTC2 14-1273). As to the kind of experiment: cell-based or functional assay.

B1: 5A6 VHH-Fc (Fc fusion)
chain: QVQLVESGGGLAQAGGSLRLSCATSGLTFSMSAMGWFRQAPGNEREFVGVINWNGGSSRYADSVRGRFTISRDNAKNTVYLQMNSLKPEDTGVYYCAADALNIGTGEVNPRLYDYWGQGTQVMVSS
The term EC50 denotes the concentration giving half of the maximal effect. As for B1, the EC50 was determined as 0.43 nM in assay [1] and 0.21 nM in assay [2]. Moreover, the binding result in assay [3] was “no binding”. For the same molecule, the “pseudovirus neutralization IC50” value in assay [4] stood at 6.3 nM.

B2: 6A1 VHH-Fc (Fc fusion)
chain: QVQLVESGGGLVQAGGSLRLSCTASGNIFSVNVMGWHRQAPGKRRELVAALTNDGRRNYADSVKGRFTISRDNAKNTIYLEMNSLKPEDTAVYYCGTGTLESGFNSWGQGLQVTVSS
Turning to B2, the EC50 in assay [5] worked out at 0.08 nM; in assay [1] it was 0.14 nM; in assay [3], 0.13 nM.

B3: 10B8 VHH-Fc (Fc fusion)
chain: QVQLVESGGGLVQPGGSLRLSCAASGITLDYYAIAWFRQAPGKEREGVSCFCSSDGDIRYADSVKGRFTISRDNAKNTVYLQMNSLKPEDTAVYYCATERVYSSTWFFHRYSELDFGSWGRGTQVTVSS
For B3, the “authentic virus neutralization IC50” value was found to be 0.04 nM in assay [6] and 0.3 nM in assay [7]. Also, the values for the EC50 in assay [1] and in assay [2] were 0.19 nM and 0.14 nM, respectively. For the same molecule, the binding result in assay [3] is given as “no binding”. Further, in assay [4], the “pseudovirus neutralization IC50” value was 0.09 nM.

B4: 10B8 VHH (VHH)
VHH: B3 chain
Turning to B4, the entries for the “authentic virus neutralization IC50” value in assay [6] and in assay [7] were 0.15 nM and 2.9 nM, respectively.

B5: 1E4 VHH-Fc (Fc fusion)
chain: QVLLVESGGGLVQAGGLLRLACSASGRTFTENVMGWFRQAPGKEREFVAAINWNTGSTYYSDSRKGRFTISKDNAKNTMFLQINNLKPEDTAVYYCGGTSSSYYYIGEFIPDYWGQGTQVTVSS
As to B5, the “authentic virus neutralization IC50” value is 0.05 nM in assay [6] and 0.2 nM in assay [7]. Besides, the EC50 in assay [1] is 0.06 nM. For the same molecule, the binding result in assay [3] is “no binding”. In assay [4], the “pseudovirus neutralization IC50” value turned out to be 0.06 nM.

B6: 9B2 VHH-Fc (Fc fusion)
chain: QVQLVESGGGLVQPGGSLRLSCAASGFTLDNYAIGWFRQAPGKEREGVSCISSSDGDTQYADSVKGRFTISRDNAKNTVYLQMNSLKPEDTAVYYCAVEKVYARSWFFHLCSELDFGSWGQGTQVTVSS
As for B6, the EC50 in assay [1] turned out to be 0.21 nM; in assay [2], 0.13 nM. The binding result in assay [3] is given as “no binding”. Besides, the “pseudovirus neutralization IC50” value in assay [4] amounted to 0.19 nM.
